Laboratory results as given in publication doi:10.1101/2022.03.11.483953, “Structure and regulation of the myotonic dystrophy kinase-related Cdc42-binding kinase” (bioRxiv, 2022).

T1: FITC-labeled CRIB peptide of C. elegans MRCK1 (residues 1543-1572) (C. elegans, UniProt O01583 1543-1572, fluorescein (FITC) label, position not stated)
T1 construct: MRCK1, C. elegans, CRIB motif, residues 1543-1572; also called CRIB motif peptide; fluorescein-labeled peptide
T1 peptide (looked up): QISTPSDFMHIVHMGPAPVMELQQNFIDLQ


What was measured:
[1] = biological target: the molecule itself; experiment: rotary shadowing electron microscopy; samples at 50 μg/ml in 100 mM ammonium acetate, 30% (v/v) glycerol, pH 7.4, sprayed on mica, coated with platinum and carbon
[2] = biological target: T1, FITC-labeled CRIB peptide of C. elegans …; experiment: fluorescence polarisation; fluorescence anisotropy; Cdc42^2-178 loaded with GMPPNP titrated into 100 nM fluorescein-labeled peptide; 20 °C, 20 mM Tris pH 8.0, 100 mM NaCl, 1 mM TCEP; one-site binding model; details: both partners purified

Row | Binder | stoichiometry N [1] | fold stronger than Cdc42 bound to GDP [2]
1 | C. elegans MRCK1, full length (MRCK1^1-1592) (enzyme, UniProt O01583 1-1592, looked up, source: baculovirus-infected Sf9 insect cells, purified (HisTrap, TEV cleavage, HiTrap Q); not shown: His10, N-terminal, cleaved; StrepII, N-terminal, cleaved) MAEPPPDDSAPVRLKTLENIYMDGPSKKPEALSFETLIDSLICLYDECCNSTLRKEKCIAEFVESVKTVISKAKKLRLSRDDFEVLKVIGKGAFGEVAVVRMRGVGEIYAMKILNKWEMVKRAETACFREERDVLVYGDRRWITNLHYAFQDEKNLYFVMDYYIGGDMLTLLSKFVDHIPESMAKFYIAEMVLAIDSLHRLGYVHRDVKPDNVLLDMQGHIRLADFGSCLRILADGSVASNVAVGTPDYISPEILRAMEDGRGRYGKECDWWSLGICMYEMLYGTTPFYSERLVDTYGKIMSHQDMLDFPDDEIDWVVSEEAKDLIRQLICSSDVRFGRNGLSDFQLHPFFEGIDWNTIRDSNPPYVPEVSSPEDTSNFDVDVCEDDFTPCLQETQPPRVLAAFTGNHLPFVGFSYTHGSLLSDARSLTDEIRAIAQRCQGDAELMEKSVDGFMVELENEKAELVQKLKEAQTIIAQHVAENPRSEEDRNYESTIAQLKDEIQILNKRLEDEALAQQQQKPKDEIVAESEKKLKELKERNKQLVMEKSEIQRELDNINDHLDQVLVEKATVVQQRDDMQAELADVGDSLLTEKDSVKRLQDEAEKAKKQVADFEEKLKEIETEKIALIKKQEEVTIEARKSVETDDHLSEEVVAAKNTIASLQATNEERETEIKKLKQRMDEERASHTAQSEQEMKQLEAHYERAQKMLQDNVEQMNVENRGLRDEIEKLSQQMAALPRGGLNEQQLHEIFNWVSEEKATREEMENLTRKITGEVESLKNNSPLTTSNYIQNTPSGWGSRRMNNVARKDGLDLQRQLQAEIDAKLKLKAELKNSQEQYLTSAARLDDTEKRMASLMREVAMLKQQKNIENSSDSAFSSTMGRGDLMISMNNDYEMSNSSLMRQEMISRQSTPSYENAILLHDHQVPKRVDDLRYKQKPMKTASGIFSPVSISAMERGHNFERMKIKTPTKCGHCTSILIGLDRQGLFCQSCQYACHVSCAERVSQSCPVPEEERRPLGIDPTRGVGTAYEGLVKTPRAGGVRKGWQTAYVVVCDFKLYLYDCTVDRQNKMQDVKNEIRLVLDMRDPDFTVCGVSEADVIHAQKGDIPKIFRVTTTQILNSSSEYSSSSKFYTLFMAETEEEKRKWVVALSELKTLLRRSKLADRKAFLVKEVFDVTTLPSIRVAQCCAIIDRSKIVIGFSDHGLYCIEISRQLLIPVGGEKENKQRCVETVEYDEAEQLLMMIVGPAKDRHVRIVPSAALDGRDLKWIKVNDTKGCHLLAVGTNNPGGRAGFFAVAFKKSVTIFQIDRSEKRHKKWKDLAMPGTPQSIAIFNGRLYVGFSHSFRSWSLVGVDSSPVGSGDASGAVLQHISLVNMEDTSLQFLNQQTSYEAKLIVNVPGSPDEYLLVFNMIGLYVNEMGRRSRLPEVMFPTQAKYFAYHEPYLCVFSENEVDIFNVTLAEWVQTINLRSAKPLSGDGILSTCLCNDSPIFVLLQNVLQDQDSIEVPVNLASGSTDGRKVTRRKFTFRTIGKDDRSASERRSHIQISTPSDFMHIVHMGPAPVMELQQNFIDLQSNHSHTSSDKDSLNRSVNND | 2 | –
2 | Cdc42^2-178 (C-terminally truncated Cdc42 lacking its geranylgeranylation motif) (domain or fragment, Cdc42, residues 2-178, C-terminally truncated; Loaded with GDP or with GMPPNP (Dbs exchange factor, then size exclusion) before the titration; the two loaded states are told apart by the assay; The species may be human instead (P60953); also called Cdc42 (residues 2-178); source: E. coli, purified (GST beads, TEV cleavage, SD75 size exclusion); not shown: GST, N-terminal, cleaved) not shown | – | 5 fold
